Measured values taken from PMC9035363 (Cell Reports, 2022).
Like-named read-outs stand apart in the source and are kept apart here.

Experiments:
[1] = target: SARS-CoV-2 RBD (monomeric) (SARS-CoV-2, Wuhan reference …, UniProt P0DTC2); assay: SPR
[2] = target: T1, SARS-CoV-2 S protein, wild type, on CHO cells (SARS-CoV-2, Wuhan (GenBank MN908947.3), UniProt P0DTC2); assay: cell-based or functional assay
[3] = target: T1, SARS-CoV-2 S protein, wild type, on CHO …; assay: cell-based or functional assay; remark: listed apart in the source
[4] = target: T2, RBD-Fc, reference sequence (SARS-CoV-2, Wuhan reference …, UniProt P0DTC2); assay: SPR
[5] = target: T2, RBD-Fc, reference sequence; assay: SPR; remark: listed apart in the source

Row | Binder | Kd [1] | authentic SARS-CoV-2/MT020880.1 neutralisation, IFA, IC50 (S-ACE2) [2] | PRNT, Italy-INMI1 isolate, combination study, LY-CoV1404 alone, IC50 [3] | PRNT, authentic Italy-INMI1 isolate, IC50 [3] | PRNT, authentic WA isolate, IC50 [3] | Kd [4] | Kd [5]
1 | LY-CoV1404 (bebtelovimab), full-length human IgG1 mAb (antibody, V domains shown) VH: QITLKESGPTLVKPTQTLTLTCTFSGFSLSISGVGVGWLRQPPGKALEWLALIYWDDDKRYSPSLKSRLTISKDTSKNQVVLKMTNIDPVDTATYYCAHHSISTIFDHWGQGTLVTVSS VL: QSALTQPASVSGSPGQSITISCTATSSDVGDYNYVSWYQQHPGKAPKLMIFEVSDRPSGISNRFSGSKSGNTASLTISGLQAEDEADYYCSSYTTSSAVFGGGTKLTVL | 1.58 nM | 0.009 to 0.0221 mg/L | 0.015 mg/L | 0.01 mg/L | 0.002 mg/L | – | –
2 | LY-CoV1404 Fab (papain digestion) (Fab, V domains shown) VH: QITLKESGPTLVKPTQTLTLTCTFSGFSLSISGVGVGWLRQPPGKALEWLALIYWDDDKRYSPSLKSRLTISKDTSKNQVVLKMTNIDPVDTATYYCAHHSISTIFDHWGQGTLVTVSS VL: QSALTQPASVSGSPGQSITISCTATSSDVGDYNYVSWYQQHPGKAPKLMIFEVSDRPSGISNRFSGSKSGNTASLTISGLQAEDEADYYCSSYTTSSAVFGGGTKLTVL | – | – | – | – | – | 4.01 nM | 3.71 nM
